± gives the standard deviation of the averaged measurements.
Test: total protein half-life in vivo (active degradation + dilution); higher = more stable protein
[1] = E. coli NCM3722 delta-clpP delta-lon delta-hslV, growth: N-lim chemostat, doubling time 6 h
[2] = E. coli NCM3722 delta-clpP, growth: N-lim chemostat, doubling time 6 h
[3] = E. coli NCM3722 delta-hslV, growth: N-lim chemostat, doubling time 6 h
[4] = E. coli NCM3722 delta-lon, growth: N-lim chemostat, doubling time 6 h
[5] = E. coli NCM3722 delta-smpB, growth: N-lim chemostat, doubling time 6 h
[6] = wild type E. coli NCM3722, growth: C-lim chemostat, doubling time 6 h
[7] = wild type E. coli NCM3722, growth: C-lim chemostat, doubling time 12 h
[8] = wild type E. coli NCM3722, growth: N-lim chemostat, doubling time 6 h
[9] = wild type E. coli NCM3722, growth: N-lim chemostat, doubling time 12 h
[10] = wild type E. coli NCM3722, growth: P-lim chemostat, doubling time 6 h
[11] = wild type E. coli NCM3722, growth: C-lim chemostat, doubling time 3 h
[12] = wild type E. coli NCM3722, growth: P-lim chemostat, doubling time 12 h

| Sequence | total protein half-life in vivo [1] | total protein half-life in vivo [2] | total protein half-life in vivo [3] | total protein half-life in vivo [4] | total protein half-life in vivo [5] | total protein half-life in vivo [6] | total protein half-life in vivo [7] | total protein half-life in vivo [8] | total protein half-life in vivo [9] | total protein half-life in vivo [10] | total protein half-life in vivo [11] | total protein half-life in vivo [12] |
| --- | --- | --- | --- | --- | --- | --- | --- | --- | --- | --- | --- | --- |
| MINDIKWVQAQRKATDWRQAVEIATRPLVAYGAAQPCYVNGIIENTLNWGPYYLIAPGIALPHARPEQGANYNQVSITTLRTPVAFGNEECDPVWLLLCVSATDANAHILTIQRISQFIDSPQRLTAVGNASTDDALFALVSG | 4.94 h | 4.17 ± 0.58 h | 4.11 h | 4.24 ± 0.33 h | 4.08 ± 0.47 h | 4.65 ± 0.36 h | 6.74 ± 0.098 h | 4.66 h | 8.43 ± 2.6 h | 6.04 h |  |  |
| MINVLLVDDHELVRAGIRRILEDIKGIKVVGEASCGEDAVKWCRTNAVDVVLMDMSMPGIGGLEATRKIARSTADVKIIMLTVHTENPLPAKVMQAGAAGYLSKGAAPQEVVSAIRSVYSGQRYIASDIAQQMALSQIEPEKTESPFASLSERELQIMLMITKGQKVNEISEQLNLSPKTVNSYRYRMFSKLNIHGDVELTHLAIRHGLCNAETLSSQ [P0AED5] | 5.39 ± 0.6 h | 2.492 ± 0.024 h | 1.84 ± 0.24 h | 2.66 ± 0.048 h | 1.67 ± 0.048 h | 3.04 ± 0.16 h | 4.05 ± 0.16 h | 1.89 ± 0.24 h | 2.67 ± 0.15 h | 1.8 ± 0.087 h | 1.72 ± 0.12 h | 3.89 ± 0.4 h |
| MINVQNVSKTFILHQQNGVRLPVLNRASLTVNAGECVVLHGHSGSGKSTLLRSLYANYLPDEGQIQIKHGDEWVDLVTAPARKVVEIRKTTVGWVSQFLRVIPRISALEVVMQPLLDTGVPREACAAKAARLLTRLNVPERLWHLAPSTFSGGEQQRVNIARGFIVDYPILLLDEPTASLDAKNSAAVVELIREAKTRGAAIVGIFHDEAVRNDVADRLHPMGASS |  |  |  |  |  |  |  |  |  | 0.0732 h |  | 0.788 ± 0.69 h |
| MIPVERRQIILEMVAEKGIVSIAELTDRMNVSHMTIRRDLQKLEQQGAVVLVSGGVQSPGRVAHEPSHQVKTALAMTQKAAIGKLAASLVQPGSCIYLDAGTTTLAIAQHLIHMESLTVVTNDFVIADYLLDNSNCTIIHTGGAVCRENRSCVGEAAATMLRSLMIDQAFISASSWSVRGISTPAEDKVTVKRAIASASRQRVLVCDATKYGQVATWLALPLSEFDQIITDDGLPESASRALVKQDLSLLVAKNE | 5.5397 ± 0.0019 h | 4.93 ± 0.35 h | 4.72 ± 0.089 h |  | 4.76 ± 0.23 h | 5.33 ± 0.07 h | 8.85 ± 0.59 h | 4.82 ± 0.13 h | 8.78 ± 0.59 h | 4.69 ± 0.52 h | 2.62 ± 0.12 h | 9.046 ± 0.035 h |
| MIREAQRSELPAILELWLESTTWGHPFIKANYWRDCIPLVRDAYLANAQNWVWEEDGKLLGFVSIMEGRFLAAMFVAPKAVRRGIGKALMQYVQQRHPHLMLEVYQKNQPAINFYQAQGFHIVDCAWQDETQLPTWIMSWPVVQTL | 5.19 h |  | 2.72 h | 3.34 ± 0.79 h |  | 3.55 h | 4.76 h | 2.33 ± 0.12 h | 3.08 ± 0.13 h | 4.08 h | > 4 h | 6.74 ± 0.19 h |
| MIRKSATGVIVALAVIWGGGTWYTGTQIQPGVEKFIKDFNDAKKKGEHAYDMTLSYQNFDKGFFNSRFQMQMTFDNGAPDLNIKPGQKVVFDVDVEHGPLPITMLMHGNVIPALAAAKVNLVNNELTQPLFIAAKNKSPVEATLRFAFGGSFSTTLDVAPAEYGKFSFGEGQFTFNGDGSSLSNLDIEGKVEDIVLQLSPMNKVTAKSFTIDSLARLEEKKFPVGESESKFNQINIINHGEDVAQIDAFVAKTRLDRVKDKDYINVNLTYELDKLTKGNQQLGSGEWSLIAESIDPSAVRQFIIQYNIAMQKQLAAHPELANDEVALQEVNAALFKEYLPLLQKSEPTIKQPVRWKNALGELNANLDISIADPAKSSSSTNKDIKSLNFDVKLPLNVVTETAKQLNLSEGMDAEKAQKQADKQISGMMTLGQMFQLITIDNNTASLQLRYTPGKVVFNGQEMSEEEFMSRAGRFVH |  |  | 5.74 h | 6.55 h |  |  |  | 6.18 h |  | 5.4 h | 2.57 h |  |
| MIRLSEQSPLGTGRHRKCYAHPEDAQRCIKIVYHRGDGGDKEIRRELKYYAHLGRRLKDWSGIPRYHGTVETDCGTGYVYDVIADFDGKPSITLTEFAEQCRYEEDIAQLRQLLKQLKRYLQDNRIVTMSLKPQNILCHRISESEVIPVVCDNIGESTLIPLATWSKWCCLRKQERLWKRFIAQPALAIALQKDLQPRESKTLALTSREA | 3.47 h |  |  |  |  | 7.68 h | 10.7 h |  |  |  | 3.22 h |  |
| MIRNVLLAFMICSGMTLLGGCSSVMSHTGGKEGTYPGTRASATMIGDDETNWGTKSLAILDMPFTAVMDTLLLPWDVFRKDSSVRSRVEKSEANAQATNAVIPPARMPDN [P0ADM4] | 5.58 ± 0.24 h | 6 ± 0.66 h | 5.46 ± 0.49 h | 5.9 ± 0.34 h | 4.43 ± 0.12 h | 4.71 ± 0.37 h | 8.87 ± 1.3 h | 5.84 ± 0.094 h | 11 ± 1.4 h | 4.8 ± 0.24 h | 2.6 ± 0.12 h | 11.1 ± 0.31 h |
| MIRQRRRALTPEQQQEMGQQAATRMMTYPPVVMAHTVAVFLSFDGELDTQPLIEQLWRAGKRVYLPVLHPFSAGNLLFLNYHPQSELVMNRLKIHEPKLDVRDVLPLSRLDVLITPLVAFDEYGQRLGMGGGFYDRTLQNWQHYKTQPVGYAHDCQLVEKLPVEEWDIPLPAVVTPSKVWEW [P0AC28] | 4.93 ± 0.7 h | 3.88 ± 0.18 h |  | 2.6 ± 0.54 h | 2.58 h | 4.81 ± 0.41 h | 7.66 ± 1.6 h | 2.59 h | 4.35 h | 3.85 ± 0.24 h | 2.75 ± 0.068 h | 7.8 ± 0.34 h |

Reference: the supplement of paper PMC11246515
